Series [1] has as its target T1, recombinant rhIFNAR1 (≈110 kD), P17181.
T1 chain: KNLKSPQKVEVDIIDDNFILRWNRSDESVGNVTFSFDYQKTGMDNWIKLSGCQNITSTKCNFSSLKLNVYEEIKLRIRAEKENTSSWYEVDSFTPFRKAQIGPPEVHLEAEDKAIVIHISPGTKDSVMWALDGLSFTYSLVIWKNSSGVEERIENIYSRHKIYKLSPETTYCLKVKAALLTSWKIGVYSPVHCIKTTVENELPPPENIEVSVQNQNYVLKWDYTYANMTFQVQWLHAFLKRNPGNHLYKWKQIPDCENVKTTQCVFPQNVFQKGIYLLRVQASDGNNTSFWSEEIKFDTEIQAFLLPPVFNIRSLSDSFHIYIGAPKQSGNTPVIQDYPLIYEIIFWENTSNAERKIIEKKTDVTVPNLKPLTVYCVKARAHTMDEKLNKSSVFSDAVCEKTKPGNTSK

Sequence of rhMCP-3, P80098 (P80098 24-99): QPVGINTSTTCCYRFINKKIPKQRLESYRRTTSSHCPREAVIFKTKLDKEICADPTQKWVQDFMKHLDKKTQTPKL

B1: Purified human MMP-2 (mixture of the proenzyme (50%) and the active form (50%)) (protein)
chain: YNFFPRKPKWDKNQITYRIIGYTPDLDPETVDDAFARAFQVWSDVTPLRFSRIHDGEADIMINFGRWEHGDGYPFDGKDGLLAHAFAPGTGVGGDSHFDDDELWTLGEGQVVRVKYGNADGEYCKFPFLFNGKEYNSCTDTGRSDGFLWCSTTYNFEKDGKYGFCPHEALFTMGGNAEGQPCKFPFRFQGTSYDSCTTEGRTDGYRWCGTTEDYDRDKKYGFCPETAMSTVGGNSEGAPCVFPFTFLGNKYESCTSAGRSDGKMWCATTANYDDDRKWGFCPDQGYSLFLVAAHEFGHAMGLEHSQDPGALMAPIYTYTKNFRLSQDDIKGIQELYGASPDIDLGTGPTPTLGPVTPEICKQDIVFDGIAQIRGEIFFFKDRFIWRTVTPRDKPMGPLLVATFWPELPEKIDAVYEAPQEEKAVFFAGNEYWIYSASTLERGYPKPLTSLGLPPDVQRVDAAFNWSKNKKTYIFAGDKFWRYNEVKKKMDPGFPKLIADAWNAIPDNLDAVVDLQGGGHSYFFKGAYYLKLENQSLKSVKFGSIKSDWLGC
Regarding B1, the “degradation of rhIFNAR1 after overnight incubation with MMP-2 (Western blot)” value in series [1] is listed as “recombinant rhIFNAR1 (≈110 kD) incubated overnight with active MMP-2 was degraded by MMP-2”. Further, the “MCP-3 degradation (MCP-3 content by ELISA after overnight incubation)” value with rhMCP-3, P80098 is recorded as “MMP-2 activity was controlled by measuring its capacity to degrade MCP-3”.

These data come from patent US20140030216.
